Measurements from patent publication US20240262919A1 (SHANGHAITECH UNIVERSITY, published 2024).

T1: human IL-18Rβ ECD Fc fusion (118-AP-100, R&D Systems) (human, UniProt O95256 20-356)
T1 construct: Bought protein; also called hIL-18Rβ; recombinant human IL-18Rb; not shown: Fc tag of the bought fusion protein, not described
T1 sequence: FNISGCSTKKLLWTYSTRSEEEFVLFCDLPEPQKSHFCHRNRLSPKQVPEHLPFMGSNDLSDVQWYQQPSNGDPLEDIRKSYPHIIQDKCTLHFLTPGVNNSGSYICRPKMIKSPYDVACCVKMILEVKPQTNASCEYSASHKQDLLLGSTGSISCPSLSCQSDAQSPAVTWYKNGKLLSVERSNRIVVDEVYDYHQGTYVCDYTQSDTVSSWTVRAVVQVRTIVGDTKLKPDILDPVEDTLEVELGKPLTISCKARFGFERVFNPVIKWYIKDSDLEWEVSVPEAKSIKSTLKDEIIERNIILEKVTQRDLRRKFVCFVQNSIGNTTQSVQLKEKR


How the values were obtained:
[1] = molecular target: T1, human IL-18Rβ ECD Fc fusion …; assay: ELISA on recombinant human IL-18Rβ, normalised OD 450 nm, Fab with PBS or with saturating IgG 3131 [bottom plot]
Description: (§1) The results are presented in FIG. 9, in which the binding signals for purified. […] Error bars represent standard deviation of replicate measurements.

[2] = molecular target: T1, human IL-18Rβ ECD Fc fusion …; assay: ELISA on recombinant human IL-18Rβ, normalised OD 450 nm, Fab with PBS or with saturating IgG 3131 [middle plot]
Description: as §1

Binder | binding result [1] | binding result [2]
3131 AM2-36 (Fab, V domains shown, Fab) VH: EVQLVESGGGLVQPGGSLRLSCAASGFNLYYSSMHWVRQAPGKGLEWVASIYSSSGSTSYADSVKGRFTISADTSKNTAYLQMNSLRAEDTAVYYCARSSFSHGYGWYGLDYWGQGTLVTVSS VL: DIQMTQSPSSLSASVGDRVTITCRASQSVSSAVAWYQQKPGKAPKLLIYSASSLYSGVPSRFSGSRSGTDFTLTISSLQPEDFATYYCQQYGYHYAGLITFGQGTKVEIK | binds | 
3131 AM2-S-T (Fab, V domains shown, Fab) VH: EVQLVESGGGLVQPGGSLRLSCAASGFNLYYSSMHWVRQAPGKGLEWVASIYSSYGYTYYADSVKGRFTISADTSKNTAYLQMNSLRAEDTAVYYCARSSFSHGYGWYGLDYWGQGTLVTVSS VL: DIQMTQSPSSLSASVGDRVTITCRASQSVSSAVAWYQQKPGKAPKLLIYTASSLYSGVPSRFSGSRSGTDFTLTISSLQPEDFATYYCQQYGYHYAGLITFGQGTKVEIK | binds | 
3131 AM2-25 (Fab, V domains shown, Fab) VH: EVQLVESGGGLVQPGGSLRLSCAASGFNLYYSSMHWVRQAPGKGLEWVASIYSSYGYTYYADSVKGRFTISADTSKNTAYLQMNSLRAEDTAVYYCARSSFSHGYGWYGLDYWGQGTLVTVSS VL: DIQMTQSPSSLSASVGDRVTITCRASQSVSSAVAWYQQKPGKAPKLLIYSASSRDSGVPSRFSGSRSGTDFTLTISSLQPEDFATYYCQQYGYHYAGLITFGQGTKVEIK |  | binds
3131 AM2-28 (Fab, V domains shown, Fab) VH: EVQLVESGGGLVQPGGSLRLSCAASGFNLYYSSMHWVRQAPGKGLEWVASIYSSYGYTYYADSVKGRFTISADTSKNTAYLQMNSLRAEDTAVYYCARSSFSHGYGWYGLDYWGQGTLVTVSS VL: DIQMTQSPSSLSASVGDRVTITCRASQSVSSAVAWYQQKPGKAPKLLIYSRSSDSSGVPSRFSGSRSGTDFTLTISSLQPEDFATYYCQQYGYHYAGLITFGQGTKVEIK |  | binds
3131 AM2-31 (Fab, V domains shown, Fab) VH: EVQLVESGGGLVQPGGSLRLSCAASGFNLYYSSMHWVRQAPGKGLEWVASIYSSYGYTYYADSVKGRFTISADTSKNTAYLQMNSLRAEDTAVYYCARSSFSHGYGWYGLDYWGQGTLVTVSS VL: DIQMTQSPSSLSASVGDRVTITCRASQSVSSAVAWYQQKPGKAPKLLIYSESSLYSGVPSRFSGSRSGTDFTLTISSLQPEDFATYYCQQYGYHYAGLITFGQGTKVEIK |  | binds
3131 AM2-30 (Fab, V domains shown, Fab) VH: EVQLVESGGGLVQPGGSLRLSCAASGFNLYYSSMHWVRQAPGKGLEWVASIYSSYGYTYYADSVKGRFTISADTSKNTAYLQMNSLRAEDTAVYYCARSSFSHGYGWYGLDYWGQGTLVTVSS VL: DIQMTQSPSSLSASVGDRVTITCRASQSVSSAVAWYQQKPGKAPKLLIYSASSERSGVPSRFSGSRSGTDFTLTISSLQPEDFATYYCQQYGYHYAGLITFGQGTKVEIK |  | binds
3131 AM2-26 (Fab, V domains shown, Fab) VH: EVQLVESGGGLVQPGGSLRLSCAASGFNLYYSSMHWVRQAPGKGLEWVASIYSSYGYTYYADSVKGRFTISADTSKNTAYLQMNSLRAEDTAVYYCARSSFSHGYGWYGLDYWGQGTLVTVSS VL: DIQMTQSPSSLSASVGDRVTITCRASQSVSSAVAWYQQKPGKAPKLLIYSESSLSSGVPSRFSGSRSGTDFTLTISSLQPEDFATYYCQQYGYHYAGLITFGQGTKVEIK |  | binds
3131 AM2-S-H (Fab, V domains shown, Fab) VH: EVQLVESGGGLVQPGGSLRLSCAASGFNLYYSSMHWVRQAPGKGLEWVASIYSSYGYTYYADSVKGRFTISADTSKNTAYLQMNSLRAEDTAVYYCARSSFSHGYGWYGLDYWGQGTLVTVSS VL: DIQMTQSPSSLSASVGDRVTITCRASQSVSSAVAWYQQKPGKAPKLLIYHASSLYSGVPSRFSGSRSGTDFTLTISSLQPEDFATYYCQQYGYHYAGLITFGQGTKVEIK | binds | 
3131 AM2-S-Y (Fab, V domains shown, Fab) VH: EVQLVESGGGLVQPGGSLRLSCAASGFNLYYSSMHWVRQAPGKGLEWVASIYSSYGYTYYADSVKGRFTISADTSKNTAYLQMNSLRAEDTAVYYCARSSFSHGYGWYGLDYWGQGTLVTVSS VL: DIQMTQSPSSLSASVGDRVTITCRASQSVSSAVAWYQQKPGKAPKLLIYYASSLYSGVPSRFSGSRSGTDFTLTISSLQPEDFATYYCQQYGYHYAGLITFGQGTKVEIK | binds | 
3131 AM2-32 (Fab, V domains shown, Fab) VH: EVQLVESGGGLVQPGGSLRLSCAASGFNLYYSSMHWVRQAPGKGLEWVASIYSSYGYTYYADSVKGRFTISADTSKNTAYLQMNSLRAEDTAVYYCARSSFSHGYGWYGLDYWGQGTLVTVSS VL: DIQMTQSPSSLSASVGDRVTITCRASQSVSSAVAWYQQKPGKAPKLLIYSSSSVYSGVPSRFSGSRSGTDFTLTISSLQPEDFATYYCQQYGYHYAGLITFGQGTKVEIK | binds | 
3131 AM2-33 (Fab, V domains shown, Fab) VH: EVQLVESGGGLVQPGGSLRLSCAASGFNLYYSSMHWVRQAPGKGLEWVASIYSSYGHTSYADSVKGRFTISADTSKNTAYLQMNSLRAEDTAVYYCARSSFSHGYGWYGLDYWGQGTLVTVSS VL: DIQMTQSPSSLSASVGDRVTITCRASQSVSSAVAWYQQKPGKAPKLLIYSASSLYSGVPSRFSGSRSGTDFTLTISSLQPEDFATYYCQQYGYHYAGLITFGQGTKVEIK | binds | 
3131 AM2-37 (Fab, V domains shown, Fab) VH: EVQLVESGGGLVQPGGSLRLSCAASGFNLYYSSMHWVRQAPGKGLEWVASIYSSSGSTSYADSVKGRFTISADTSKNTAYLQMNSLRAEDTAVYYCARSSFSHGYGWYGLDYWGQGTLVTVSS VL: DIQMTQSPSSLSASVGDRVTITCRASQSVSSAVAWYQQKPGKAPKLLIYSASSLYSGVPSRFSGSRSGTDFTLTISSLQPEDFATYYCQQYGYHSAGLITFGQGTKVEIK | binds | 
3131 AM2-S-G (Fab, V domains shown, Fab) VH: EVQLVESGGGLVQPGGSLRLSCAASGFNLYYSSMHWVRQAPGKGLEWVASIYSSYGYTYYADSVKGRFTISADTSKNTAYLQMNSLRAEDTAVYYCARSSFSHGYGWYGLDYWGQGTLVTVSS VL: DIQMTQSPSSLSASVGDRVTITCRASQSVSSAVAWYQQKPGKAPKLLIYGASSLYSGVPSRFSGSRSGTDFTLTISSLQPEDFATYYCQQYGYHYAGLITFGQGTKVEIK | binds | 
3131 AM2-35 (Fab, V domains shown, Fab) VH: EVQLVESGGGLVQPGGSLRLSCAASGFNLYYSSMHWVRQAPGKGLEWVASIYSSYGYTYYADSVKGRFTISADTSKNTAYLQMNSLRAEDTAVYYCARSSFSHGYGWYGLDYWGQGTLVTVSS VL: DIQMTQSPSSLSASVGDRVTITCRASQSVSSAVAWYQQKPGKAPKLLIYSASSLYSGVPSRFSGSRSGTDFTLTISSLQPEDFATYYCQQYGYHSAGLITFGQGTKVEIK | binds | 
